Source: the Immune Epitope Database (IEDB)

What was measured:
[1] = target: HLA-A*01:01; experiment: IEDB peptide-MHC binding, purified MHC/competitive/fluorescence; ≥ and ≤ were set here for values at or beyond the usual limits of such assays
[2] = target: HLA-A*02:01; experiment: as above
[3] = target: HLA-A*03:01; experiment: as above
[4] = target: HLA-A*11:01; experiment: as above
[5] = target: HLA-A*24:02; experiment: as above
[6] = target: HLA-B*15:01; experiment: as above
[7] = target: HLA-B*08:02; experiment: IEDB peptide-MHC binding, purified MHC/direct/fluorescence; filed as Kd, often an IC50 or EC50 that approximates it; ≥ and ≤ were set here for values at or beyond the usual limits of such assays
[8] = target: HLA-A*01:01; experiment: as above
[9] = target: HLA-A*02:01; experiment: as above
[10] = target: HLA-A*03:01; experiment: as above
[11] = target: HLA-A*11:01; experiment: as above
[12] = target: HLA-A*26:01; experiment: as above
[13] = target: HLA-A*31:01; experiment: as above
[14] = target: HLA-A*69:01; experiment: as above
[15] = target: HLA-B*07:02; experiment: as above
[16] = target: HLA-B*08:01; experiment: as above
[17] = target: HLA-B*15:01; experiment: as above
[18] = target: HLA-B*27:05; experiment: as above
[19] = target: HLA-B*35:01; experiment: as above
[20] = target: HLA-B*40:01; experiment: as above
[21] = target: HLA-B*44:02; experiment: as above
[22] = target: HLA-A*24:03; experiment: as above
[23] = target: HLA-A*30:01; experiment: as above
[24] = target: HLA-B*58:01; experiment: as above
[25] = target: HLA-B*08:01; experiment: IEDB peptide-MHC binding, purified MHC/competitive/fluorescence; filed as Kd, often an IC50 or EC50 that approximates it; ≥ and ≤ were set here for values at or beyond the usual limits of such assays
[26] = target: HLA-A*01:01; experiment: as above; conditions: source organism: Human betaherpesvirus 7
[27] = target: HLA-A*29:02; experiment: as above; conditions: source organism: Human betaherpesvirus 7
[28] = target: HLA-C*05:01; experiment: IEDB peptide-MHC binding, purified MHC/direct/fluorescence; filed as Kd, often an IC50 or EC50 that approximates it; ≥ and ≤ were set here for values at or beyond the usual limits of such assays; conditions: source organism: Homo sapiens
[29] = target: HLA-C*12:03; experiment: as above
[30] = target: HLA-B*46:01; experiment: as above; conditions: source organism: Burkholderia mallei
[31] = target: HLA-B*48:01; experiment: as above; conditions: source organism: Burkholderia mallei
[32] = source organism: Vaccinia virus
[33] = source organism: Burkholderia mallei ATCC 23344
[34] = source organism: Escherichia coli O157:H7
[35] = source organism: Shigella flexneri
[36] = source organism: Escherichia coli O6
[37] = source organism: Vaccinia virus Copenhagen
[38] = source organism: Vibrio vulnificus
[39] = source organism: Vaccinia virus WR
[40] = source organism: Vibrio cholerae
[41] = source organism: Pseudomonas aeruginosa
[42] = source organism: Coxiella burnetii
[43] = source organism: Zaire ebolavirus

Sequence AMEKSSKYY has an IC50 [1, 32] of 28.5 µM, an IC50 [2, 32] of no less than 1170 µM and an IC50 [3, 32] of no less than 142 µM. For the same sequence, the IC50 [4, 32] was no less than 195 µM, the IC50 [5, 32] was no less than 962 µM and the IC50 [6, 32] was 11 µM.

FLRRRRAAL was tested, and the Kd [7, 33] was 0.071 µM.

IAIPAHVRL gave a Kd [8, 34] of no less than 20 µM, a Kd [9, 34] of no less than 20 µM and a Kd [10, 34] of no less than 20 µM. It also gave a Kd [11, 34] of no less than 20 µM, a Kd [12, 34] of no less than 20 µM and a Kd [13, 34] of no less than 20 µM. The Kd [14, 34] was 0.227 µM, the Kd [15, 34] was 8.52 µM and the Kd [16, 34] was 4.46 µM. It also gave a Kd [17, 34] of 1.81 µM, a Kd [18, 34] of no less than 20 µM and a Kd [19, 34] of 0.392 µM. The Kd [20, 34] was no less than 5 µM and the Kd [21, 34] was no less than 20 µM.

KTTLFHTFK gave a Kd [8, 35] of no less than 20 µM, a Kd [9, 35] of no less than 20 µM and a Kd [10, 36] of 0.122 µM. The Kd [11, 36] was 0.0162 µM, the Kd [22, 35] was no less than 20 µM and the Kd [12, 35] was no less than 20 µM. The Kd [23, 36] was 0.00609 µM, the Kd [13, 36] was 0.0304 µM and the Kd [14, 35] was no less than 20 µM. For the same sequence, the Kd [15, 35] was no less than 20 µM, the Kd [16, 35] was no less than 20 µM and the Kd [17, 35] was no less than 20 µM. For the same sequence, the Kd [18, 35] was no less than 20 µM, the Kd [20, 35] was no less than 20 µM and the Kd [21, 35] was no less than 20 µM. The Kd [24, 36] was 9.38 µM.

LAARKARAA was tested, and the Kd ([25]; source organism: Escherichia coli) was 0.644 µM.

LSMFVTNKK showed a Kd [26] of 3 µM and a Kd [27] of 0.0627 µM.

LSSQMTSTF gave an IC50 [1, 37] of no less than 129 µM, an IC50 [2, 37] of no less than 155 µM and an IC50 [5, 37] of 0.788 µM. The IC50 [6, 37] was 4.85 µM.

In the case of LVMAPRTVL, the Kd ([9]; source organism: Homo sapiens) is reported as no less than 39.5 µM, the Kd ([11]; source organism: Homo sapiens) is reported as 10.3 µM and the Kd ([14]; source organism: Homo sapiens) is reported as 3.61 µM. The Kd ([15]; source organism: Homo sapiens) was 0.179 µM, the Kd ([17]; source organism: Homo sapiens) was 0.731 µM and the Kd [28] was 2.04 µM. For the same sequence, the Kd ([29]; source organism: Homo sapiens) was 0.102 µM.

NGYRWQHQI showed a Kd [8, 38] of no less than 20 µM, a Kd [9, 38] of 1.35 µM and a Kd [10, 38] of no less than 20 µM. The Kd [11, 38] was no less than 20 µM, the Kd [22, 38] was 7.53 µM and the Kd [12, 38] was no less than 20 µM. For the same sequence, the Kd [13, 38] was no less than 20 µM, the Kd [14, 38] was 0.0174 µM and the Kd [17, 38] was no less than 20 µM. The Kd [18, 38] was no less than 20 µM, the Kd [19, 38] was 0.843 µM and the Kd [20, 38] was no less than 20 µM. It also gave a Kd [21, 38] of no less than 20 µM.

For PIDSHKGYV, the IC50 [1, 39] was 29.4 µM and the IC50 [2, 39] was no less than 129 µM.

For RPRIRLSAP, the Kd [8, 40] was no less than 20 µM, the Kd [9, 40] was no less than 20 µM and the Kd [10, 40] was no less than 20 µM. The Kd [11, 40] was no less than 20 µM, the Kd [22, 40] was no less than 20 µM and the Kd [12, 40] was no less than 20 µM. The Kd [23, 40] was 3.77 µM, the Kd [13, 40] was no less than 20 µM and the Kd [14, 40] was no less than 20 µM. The Kd [15, 40] was 0.0278 µM, the Kd [16, 40] was 1.89 µM and the Kd [17, 40] was no less than 20 µM. The Kd [18, 40] was no less than 20 µM, the Kd [20, 40] was no less than 20 µM and the Kd [21, 40] was no less than 20 µM. For the same sequence, the Kd [24, 40] was no less than 20 µM.

RSFAERLDR gave a Kd [8, 41] of no less than 20 µM, a Kd [9, 41] of no less than 20 µM and a Kd [10, 41] of 0.286 µM. For the same sequence, the Kd [11, 41] was 0.117 µM, the Kd [22, 41] was no less than 20 µM and the Kd [12, 41] was no less than 20 µM. The Kd [23, 41] was 0.344 µM, the Kd [13, 41] was 0.0287 µM and the Kd [14, 41] was no less than 20 µM. It also gave a Kd [15, 41] of no less than 20 µM, a Kd [16, 41] of no less than 20 µM and a Kd [17, 41] of no less than 20 µM. The Kd [18, 41] was 3.46 µM, the Kd [20, 41] was no less than 20 µM and the Kd [24, 41] was no less than 20 µM.

RVNPGTYVY showed an IC50 ([1]; source organism: Variola virus) of 10.3 µM, an IC50 ([3]; source organism: Variola virus) of 4.32 µM and an IC50 ([4]; source organism: Variola virus) of 0.701 µM. The IC50 ([6]; source organism: Variola virus) was 9.02 µM.

TLHFKQYEF gave a Kd ([25]; source organism: Influenza A virus (A/Wyoming/3/2003-X-147(H3N2))) of 0.433 µM.

TPVWHVTSA showed a Kd [8, 36] of no less than 20 µM, a Kd [9, 36] of no less than 20 µM and a Kd [10, 36] of no less than 20 µM. For the same sequence, the Kd [11, 36] was no less than 20 µM, the Kd [22, 36] was no less than 20 µM and the Kd [12, 36] was no less than 20 µM. It also gave a Kd [13, 36] of no less than 20 µM, a Kd [14, 36] of no less than 20 µM and a Kd [15, 36] of 0.0181 µM. For the same sequence, the Kd [16, 36] was no less than 20 µM, the Kd [17, 36] was no less than 20 µM and the Kd [18, 36] was no less than 20 µM. For the same sequence, the Kd [19, 36] was 0.0209 µM, the Kd [20, 36] was no less than 20 µM and the Kd [24, 36] was no less than 20 µM.

Sequence VINWKGKEL has a Kd ([7]; source organism: dengue virus type 3) of no less than 20 µM.

With VPPESVEAA the Kd [8, 42] was no less than 20 µM, the Kd [9, 42] was no less than 20 µM and the Kd [10, 42] was no less than 20 µM. It also gave a Kd [11, 42] of no less than 20 µM, a Kd [12, 42] of no less than 20 µM and a Kd [23, 42] of no less than 20 µM. For the same sequence, the Kd [13, 42] was no less than 20 µM, the Kd [14, 42] was no less than 20 µM and the Kd [15, 42] was 12.2 µM. For the same sequence, the Kd [16, 42] was no less than 20 µM, the Kd [17, 42] was no less than 20 µM and the Kd [18, 42] was no less than 20 µM. For the same sequence, the Kd [19, 42] was 1.56 µM, the Kd [20, 42] was no less than 20 µM and the Kd [21, 42] was no less than 20 µM. It also gave a Kd [24, 42] of no less than 20 µM.

YMKAPSGAL was tested, and the Kd [15, 33] was 0.009 µM, the Kd ([17]; source organism: Burkholderia mallei) was 0.0385 µM and the Kd [19, 33] was 3.13 µM. For the same sequence, the Kd [30] was 1.95 µM, the Kd [31] was 0.047 µM and the Kd ([29]; source organism: Burkholderia mallei SAVP1) was 0.005 µM.

YSTTIRYQA showed an IC50 [1, 43] of no less than 207 µM and an IC50 [2, 43] of 42.3 µM.
